Earlier results in article PMC12152952.

Biological target: EphA2 (ephrin type-A receptor 2) (UniProt P29317)
Conditions: 2'-fluoro on lowercase residues (all C and U; 2'-F pyrimidines), A and G are ribo

Sequence of EphA2 (ephrin type-A receptor 2) (P29317 24-537): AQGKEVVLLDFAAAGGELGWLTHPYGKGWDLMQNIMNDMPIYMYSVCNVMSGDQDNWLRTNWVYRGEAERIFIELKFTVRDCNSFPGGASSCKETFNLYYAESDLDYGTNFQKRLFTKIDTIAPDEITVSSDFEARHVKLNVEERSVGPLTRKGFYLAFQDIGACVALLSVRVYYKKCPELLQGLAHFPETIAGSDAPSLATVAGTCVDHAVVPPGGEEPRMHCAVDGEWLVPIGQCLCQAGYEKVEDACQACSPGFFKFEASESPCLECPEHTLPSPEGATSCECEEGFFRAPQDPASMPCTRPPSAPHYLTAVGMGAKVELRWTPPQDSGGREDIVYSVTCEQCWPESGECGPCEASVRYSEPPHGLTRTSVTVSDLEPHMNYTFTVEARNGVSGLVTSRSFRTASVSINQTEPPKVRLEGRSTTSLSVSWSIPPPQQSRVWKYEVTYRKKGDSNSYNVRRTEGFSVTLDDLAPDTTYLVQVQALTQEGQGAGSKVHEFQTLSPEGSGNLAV

Sequence: CCUGUUGUUCGACAGGAGGCUCACAACAGG [A40s]
- Kd: 0.76 nM
